Test system: MS2 coat protein
Experiment: apparent KD of MS2 coat protein; designed switch direction (-1 OFF switch, 1 ON switch): -1; higher = weaker reporter binding
In short: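 Apparent KD, taken as the median over clusters for each design, was obtained by curve-fitting normalised cluster fluorescence. Designed RNA switches had been transcribed on Illumina chips by stalled E. coli RNA polymerase and titrated with SNAP-549-labelled MS2 coat protein, doubling from 0.7 or 1.5 nM to 3 µM.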

[1] = Eterna round: R95, input ligand: microRNA oligo, concentration not stated
[2] = Eterna round: R95, input ligand: FMN 200 uM
[3] = Eterna round: R95, input ligand: none
[4] = input ligand: microRNA oligo, concentration not stated

Row | Sequence | apparent KD of MS2 coat protein [1] | apparent KD of MS2 coat protein (input ligand: FMN 200 uM) | apparent KD of MS2 coat protein (input ligand: none) | also measured
1 | CCGAAUAAGCAGGAUAUCGAAUCGGAAACGAUUCGAGAAGGGUUAACAUGAGGAUCACCCAUGUUCCUUAACGG [Mat - Exclusion 6 - Eli Mod - D78] (puzzle: Exclusion 6) | 19.2 nM |  |  | 
2 | CCGAGGUAGCGGUCCUAUGACAUGAGGAUCACCCAUGUACCUCGCUACGAGCUUUUUGCUCAUCUUAUAAUUCUCGG [Atriat] (puzzle: Sensor v3, turn-off variant 1) | 26.1 nM |  |  | apparent KD of MS2 coat protein [2]: 20.9 nM; apparent KD of MS2 coat protein [3]: 19.2 nM
3 | CCGCAAAUGCAGGAUAUCGUAUCGGAUACGAUACGAGAAGGGCAAACAUGAGGAUCACCCAUGUGUCCUAGCGG [Fiskers Ex 6 - 39] (puzzle: Exclusion 6) | 13.7 nM |  |  | 
4 | CCGCUCCGUGUAGGAUAUUGGCCUGCUCUGGGCCGAGAAGGACAUGAGGAUCACCCAUGUAUGUUAUUAUCACGCGUGGCGCAU [Design 79] (Eterna round: R96, puzzle: Exclusion NG 1) |  | 31.6 nM | 21.6 nM | apparent KD of MS2 coat protein [4]: 14.5 nM
5 | CCGGAAAAGGAGGAUAUAGGAGUCGAUAGACACCUAGAAGGUCUGACAUGAGGAUCACCCAUGUGUCCUACCGG [Fiskers Ex 6 - 89] (puzzle: Exclusion 6) | 20.8 nM |  |  | 
6 | CCGGAAAUAGAGGAUAUAGGACUCGAUAGAGUCCUAGAAGGCUAUACAUGAGGAUCACCCAUGUGUCCUACCGG [Fiskers Ex 6 - 64] (puzzle: Exclusion 6) | 13.6 nM |  |  | apparent KD of MS2 coat protein [2]: 40.7 nM; apparent KD of MS2 coat protein [3]: 13.4 nM
7 | CCGGAUAUGCAGGAUAUCGUAUCGGAUACGAUACGAGAAGGGUAUACAUGAGGAUCACCCAUGUGUCCUACCGG [Mat - Exclusion 6 - Eli Mod - D85] (puzzle: Exclusion 6) | 19.8 nM |  |  | 
8 | CCGGUGUGAGGAUAUCCAUCUGGAUCAGACUAGAUCCUGAUGGAGAAGGCACAUGAGGAUCACCCAUGUUACGG [Eli 4x 4.42] (Eterna round: R97, puzzle: Exclusion 4) |  | 567 nM | 656 nM | 
9 | CCGGUUGGCGCAGGAUAUACAUGAGGAUCACCCAUGUUCAUGAGGAUCACCCAUGAGGUAAUGAUGUAGAAGGGUGGCCCGGCC [A second MS2 with the first and last base exchanged] (Eterna round: R96, puzzle: Exclusion NG 2) |  | 30.5 nM | 33.6 nM | apparent KD of MS2 coat protein [4]: 18.5 nM
10 | CCGGUUGGCGCAGGAUAUACAUGAGGAUCACCCAUGUUCAUGAGGAUCGCCCAUGAGUUUUUGUUGUAGAAGGGUGGCCCGGCC (Eterna round: R96, puzzle: Exclusion NG 2) |  | 92.4 nM | 84 nM | apparent KD of MS2 coat protein [4]: 70 nM
11 | CCGUAACAUGAGGAUCACCCAUGUCAGGAUAUUCCAAAAUCGUCGAAAGACGAUAACAGAAGAAGGGACAACGG [Fiskxlusion 2 - Jieux - Exclusion 1] (Eterna round: R97, puzzle: Exclusion 1) |  | 47.6 nM | 28.9 nM | 
12 | CCGUAGUCAGGAUAUACAUGAGGAUCACCCAUGUAAAAUUUUAAUUUAAUUUGAAGGUGUAGAAGGGACCAGCC [Ex3 #28] (Eterna round: R97, puzzle: Exclusion 3) |  | 33.5 nM | 35.6 nM | 
13 | CCGUGGCAAGGAUAUACAUAGGAGAGGAAGGCAAGAGGAGGACAUGAGGAUCACCCAUGUAGAAGGUGCAGAUC [JR_Exclu2_Sub028] (puzzle: Exclusion 2) | 71.7 nM |  |  | 
14 | CCUAAACAUGAGGAUCACCCAUGUGAGGAUAUGCACACCACAACAUGCGGUUGAGGGUGCAGAAGGCAUAUGAG [Eternabot (L1) Solution 60] (Eterna round: R97, puzzle: Exclusion 1) |  | 99.2 nM | 34.2 nM | 
15 | CCUACGUUGUAGGAUAUAGUGAUUUAUUAAUAUUUAGAAGGACAUACAUGAGGAUCACCCAUGUGAGUUGGGUG [Eternabot (L2) Solution 27] (Eterna round: R97, puzzle: Exclusion 6) |  | 153 nM | 674 nM | 
16 | CCUAGUUGGUAAGGAUAUCCUACACUGUUCUGACCCGGGCAUGCUACAUGAGGAUCACCCAUGUGGGAGAAGGUGCGUCAUCGC [Design 15] (Eterna round: R96, puzzle: Exclusion NG 2) |  | 30.5 nM | 37.3 nM | apparent KD of MS2 coat protein [4]: 27.1 nM
17 | CCUAGUUGGUAAGGAUAUCCUACAUUGUUCUGGCCCGGGCAUGCUACAUGAGGAUCACCCAUGUGGGAGAAGGUGCGUCAUCGC [Design 17] (Eterna round: R96, puzzle: Exclusion NG 2) |  | 80.4 nM | 71.7 nM | apparent KD of MS2 coat protein [4]: 53.3 nM
18 | CCUCAGUAAGGAUAUCAGCUUAUGGAGGUGGUAAUGAGAGCUGAGAAGGUACAUGAGGAUCACCCAUGUUAGUU [JL Zatite mod 1] (puzzle: Exclusion 4) | 46.2 nM |  |  | 

Row | Sequence | apparent KD of MS2 coat protein [1] | apparent KD of MS2 coat protein (input ligand: FMN 200 uM) | apparent KD of MS2 coat protein (input ligand: none) | also measured
19 | CCUCCACAUGAGGAUCACCCAUGUAAGGAUAUACCACGCUAAGGCAAACAAAAGAACGGUAGAAGGUACCUGGC [Eternabot (Original) Solution 44] (Eterna round: R97, puzzle: Exclusion 1) |  | 32.7 nM | 23.5 nM | 
20 | CCUCCCUGAGGAUAUCCACCCUCAUACAUGAGGAUCACCCAUGUUCAUCCGUGGGUACCCGGAGAAGGCAGCUCUC [Megrez-c] (Eterna round: R97, puzzle: Exclusion 5) |  | 80.8 nM | 86.7 nM | 
21 | CCUCGACAUGAGGAUCACCCAUGUCAGGAUAUUGUGUUUUUGGUUUUUUACCUUUAGGCAAGAAGGGAUGUGUG [LRO-Excl1-18] (puzzle: Exclusion 1) | 14.4 nM |  |  | 
22 | CCUCGACAUGAGGAUCACCCAUGUGAGGAUAUGGCCUGUAUGGCGUGAGCUGAAUCAAUCAGAAGGCGCGUGGG [salish99_ex1_r4_054] (Eterna round: R97, puzzle: Exclusion 1) |  | 56.3 nM | 27 nM | 
23 | CCUCGUGCACGAGGAUAUUGGAAAGGAAGUGUACGAGAAGGCGUGCCGAGGGAACAUGAGGAUCACCCAUGUGGCCUCAUCACA [PowerStrip EXNG 1.13] (Eterna round: R96, puzzle: Exclusion NG 1) |  | 120 nM | 152 nM | apparent KD of MS2 coat protein [4]: 97.5 nM
24 | CCUCUACAUGAGGAUCACCCAUGUGAGGAUAUAAGAUUGCGGAUUCCGCACUACGGUCUUAGAAGGCGCGUGGA [Texebibia] (puzzle: Exclusion 1) | 17.2 nM |  |  | 
25 | CCUGCACAUGAGGAUCACCCAUGUCAGGAUAUCUCGCCGUCGGCUUGCCGACGGUAUUAGAGAAGGGACACGGG [JL Tixe mod 1] (puzzle: Exclusion 1) | 22 nM |  |  | 
26 | CCUGCGGACAAAGGAUAUUGCGGUGGCCGGCUCGGCGUACCGAGCCUACAUGAGGAUCACCCAUGUAAGAAGGUUGUCGUUGGU [JL ViennaUCT Qudice mod] (Eterna round: R96, puzzle: Exclusion NG 2) |  | 186 nM | 33.5 nM | apparent KD of MS2 coat protein [4]: 26.9 nM
27 | CCUUCUCGUGUCAGGAUAUCCACUCAUCGAAAUUAGGAGAAGGGACAUGAGGAUCACCCAUGUAUACAUGCCAG [Cequesar] (puzzle: Brourd's mod of Exclusion 4) | 61.7 nM |  |  | 
28 | CCUUGGUGAGGAUAUUGAAAAUCUGUCAUAUGCCGACAACUCAAGAAGGUACAUGAGGAUCACCCAUGUUGGGC [Eternabot (Original) Solution 18] (Eterna round: R97, puzzle: Exclusion 4) |  | 107 nM | 102 nM | 
29 | CCUUUGUCAGGAUAUCAGAACGCGCUCGUAGGGAGCGCGAAUGAGAAGGGACAUGAGGAUCACCCAUGUAAAGA [Soedes] (puzzle: Exclusion 4) | 74.3 nM |  |  | 
30 | CGAACUGUCUAGGAUAUACUCCCAUGCAGUUGAGUAGAAGGAGACACAUGAGGAUCACCCAUGUGACCCGAAGU [EX6 C.12] (Eterna round: R97, puzzle: Exclusion 6) |  | 25.3 nM | 19.7 nM | 
31 | CGAAGAUGAGGAUAUGCUACAGACAUGUUCGCGCAGAAGUAACAUGAGGAUCACCCAUGUAGAAGGCAUCUUUU [Eternabot (L2) Solution 88] (Eterna round: R97, puzzle: Exclusion 2) |  | 36.5 nM | 35.9 nM | 
32 | CGAAGUAGAAACCGAUCCUACAUGAGGAUCACCCAUGUAGCAAGACGUGCACGCGAAGCUCGUCAGACUACCAGAAG [salish99_TOv1_r3_004] (puzzle: Sensor v3, turn-off variant 1) | 352 nM |  |  | apparent KD of MS2 coat protein [2]: 343 nM; apparent KD of MS2 coat protein [3]: 332 nM
33 | CGAUGCUCGAGUCGACAUGAGGAUCACCCAUGUAGAGUUAGUGAGGAUAUCGGAGACACAUAGUAUGAGAAGGCGCGAACCUGA [Ex NG3 #17] (Eterna round: R96, puzzle: Exclusion NG 3) |  | 21.8 nM | 18.8 nM | apparent KD of MS2 coat protein [4]: 16.3 nM
34 | CGAUUGUGAGGAUAUACUUGUGGUAAUGCACCUGUAUGUAAACAUGAGGAUCACCCAUGUAGAAGGUACGACAG [Eternabot (L2) Solution 11] (Eterna round: R97, puzzle: Exclusion 2) |  | 27.6 nM | 27.5 nM | 
35 | CGCACACAUGAGGAUCACCCAUGUGAGGAUAUCAUGCUUCGUAGUAAACUACGAAGUGUGAGAAGGCACAUGCA [Omei Ex1 D6] (Eterna round: R97, puzzle: Exclusion 1) |  | 169 nM | 44.4 nM | 
36 | CGCAUGCAAGGAUAUACUUGCAGUGAUAUUCGAUAAAGUCUACUUGAGGAUCACCCAAGUAGAAGGUGCAUGCG [Exclusion 2 (Mod6.1 JL EX2 4.74 Vienna UCT mod of Mamaed)] (Eterna round: R97, puzzle: Exclusion 2) |  | 33.3 nM | 25 nM | 
